In this assay the target is Collagen matrix (Purecol) (UniProt P02453). The assay is described as follows: retention in a polymerised collagen gel.
UniProt P02453, sequence (P02453 162-1217, chain 1 of 2): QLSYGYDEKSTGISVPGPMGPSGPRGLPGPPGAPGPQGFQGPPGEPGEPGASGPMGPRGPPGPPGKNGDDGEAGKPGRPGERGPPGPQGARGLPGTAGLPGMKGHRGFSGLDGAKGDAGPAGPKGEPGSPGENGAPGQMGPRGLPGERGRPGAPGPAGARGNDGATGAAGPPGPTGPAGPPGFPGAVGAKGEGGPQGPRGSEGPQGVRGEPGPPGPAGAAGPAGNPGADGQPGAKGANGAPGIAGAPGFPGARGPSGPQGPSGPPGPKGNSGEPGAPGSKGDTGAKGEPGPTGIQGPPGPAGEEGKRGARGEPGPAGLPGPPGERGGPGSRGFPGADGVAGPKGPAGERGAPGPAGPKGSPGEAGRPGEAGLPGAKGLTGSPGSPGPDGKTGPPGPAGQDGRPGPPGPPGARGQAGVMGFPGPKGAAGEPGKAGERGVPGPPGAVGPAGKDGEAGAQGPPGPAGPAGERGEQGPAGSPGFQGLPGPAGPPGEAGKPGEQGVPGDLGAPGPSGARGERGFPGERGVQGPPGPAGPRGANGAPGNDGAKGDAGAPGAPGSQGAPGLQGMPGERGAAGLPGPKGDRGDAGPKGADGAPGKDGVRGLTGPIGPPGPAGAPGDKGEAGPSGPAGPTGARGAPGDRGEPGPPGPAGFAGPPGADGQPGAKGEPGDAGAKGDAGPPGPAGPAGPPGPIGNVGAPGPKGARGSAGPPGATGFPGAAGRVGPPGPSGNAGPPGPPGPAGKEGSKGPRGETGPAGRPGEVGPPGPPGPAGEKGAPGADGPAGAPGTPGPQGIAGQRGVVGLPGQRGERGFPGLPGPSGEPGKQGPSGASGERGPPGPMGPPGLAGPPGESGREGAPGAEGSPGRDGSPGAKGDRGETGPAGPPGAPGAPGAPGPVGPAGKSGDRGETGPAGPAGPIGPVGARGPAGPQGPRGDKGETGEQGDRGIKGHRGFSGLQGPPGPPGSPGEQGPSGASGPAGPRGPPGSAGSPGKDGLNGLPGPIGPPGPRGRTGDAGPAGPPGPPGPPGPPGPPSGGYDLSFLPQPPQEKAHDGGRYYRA
UniProt P02453, sequence (P02465 80-1117, chain 2 of 2, further chain): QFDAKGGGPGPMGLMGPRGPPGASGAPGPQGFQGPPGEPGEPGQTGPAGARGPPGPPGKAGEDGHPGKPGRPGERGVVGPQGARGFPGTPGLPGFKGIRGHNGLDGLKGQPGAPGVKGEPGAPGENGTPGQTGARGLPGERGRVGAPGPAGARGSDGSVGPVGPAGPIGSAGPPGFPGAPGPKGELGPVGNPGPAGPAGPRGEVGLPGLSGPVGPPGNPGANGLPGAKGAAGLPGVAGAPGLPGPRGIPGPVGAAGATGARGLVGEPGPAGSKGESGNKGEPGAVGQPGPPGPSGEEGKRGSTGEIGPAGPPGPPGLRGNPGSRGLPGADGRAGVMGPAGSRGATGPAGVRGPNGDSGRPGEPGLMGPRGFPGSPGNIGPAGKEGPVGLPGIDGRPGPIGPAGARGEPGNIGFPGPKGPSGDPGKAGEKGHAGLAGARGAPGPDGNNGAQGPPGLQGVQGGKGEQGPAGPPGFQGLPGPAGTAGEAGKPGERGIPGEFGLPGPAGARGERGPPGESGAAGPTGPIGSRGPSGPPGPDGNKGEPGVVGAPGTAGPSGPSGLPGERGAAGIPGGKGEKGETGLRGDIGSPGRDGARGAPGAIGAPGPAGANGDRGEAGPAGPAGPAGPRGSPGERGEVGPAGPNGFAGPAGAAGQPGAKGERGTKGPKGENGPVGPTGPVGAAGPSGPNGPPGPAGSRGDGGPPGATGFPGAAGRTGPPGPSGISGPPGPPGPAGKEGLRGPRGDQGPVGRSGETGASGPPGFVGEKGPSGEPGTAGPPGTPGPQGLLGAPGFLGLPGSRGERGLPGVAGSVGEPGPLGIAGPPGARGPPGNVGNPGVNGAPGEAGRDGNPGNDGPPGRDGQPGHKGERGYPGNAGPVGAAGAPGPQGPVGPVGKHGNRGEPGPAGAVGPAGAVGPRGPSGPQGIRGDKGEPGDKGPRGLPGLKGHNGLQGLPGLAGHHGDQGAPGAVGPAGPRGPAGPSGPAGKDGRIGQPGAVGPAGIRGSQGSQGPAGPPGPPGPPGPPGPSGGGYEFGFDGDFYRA

In the case of Human VEGF165 (ligand), the percent retained in the collagen gel after washes is greater than 80%.

The record behind these values is article PMC2828913.
